According to US20260209346A1 (LTZ THERAPEUTICS, published 2026):

Columns and labels:
[1] = target: T1, human CD79b recombinant protein (human, UniProt P40259 29-159); assay: ELISA, coated human CD79b recombinant protein
T1 construct: also called human CD79b ECD antigen; recombinant human CD79b ECD
T1 sequence: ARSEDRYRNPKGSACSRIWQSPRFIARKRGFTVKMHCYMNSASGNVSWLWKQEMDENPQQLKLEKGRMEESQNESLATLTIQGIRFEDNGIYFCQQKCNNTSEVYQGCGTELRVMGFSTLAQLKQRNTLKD
Protocol: (§1) Binding affinities of anti-CD79b antibodies to human and cynomolgus CD79b recombinant proteins were tested by ELISA. 1 ug/ml (in PBS buffer) of human or cynomolgus CD79b recombinant proteins were coated on an ELISA plate overnight. ELISA plates were washed and blocked with blocking buffer (PBS+1% BSA) followed by incubation with serially diluted anti-CD79b primary antibodies. Anti-CD79b antibody binding was quantified using an anti-human IgG HRP secondary antibody (Biolegend Catalog #410902) and HRP substrate.

[2] = target: T1, human CD79b recombinant protein; assay: BLI, antibody captured on anti-human IgG Fc probes, human CD79b in solution, 1:1 model
Protocol: (§2) Binding affinities of anti-CD79b antibodies to human CD79b recombinant proteins were tested by BLI. 10 ug/ml of anti-CD79b antibodies were captured by anti-human IgG Fc probes (Gator Bio Catalog #160024). […] Absolute kD was determined by applying a 1:1 binding model (Global Rmax unlinked).

[3] = target: T2, cynomolgus CD79b recombinant protein (cynomolgus); assay: ELISA; cynomolgus CD79b recombinant protein coated at 1 ug/ml; anti-human IgG HRP; OD 450 nm
T2 chain: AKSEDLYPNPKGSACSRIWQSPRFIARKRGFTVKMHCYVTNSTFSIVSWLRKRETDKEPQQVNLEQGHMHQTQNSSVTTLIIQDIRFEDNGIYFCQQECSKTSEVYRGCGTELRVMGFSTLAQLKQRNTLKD
Protocol: as §1

[4] = target: T3, CD79b endogenously expressed on the cell surface (malignant B cell lines, normal B cells in PBMC, CLL … (human, UniProt P40259 29-229)); assay: flow cytometry on Ramos cells; anti-human IgG1-PE; MFI (PE); table under the graph; curve reaches only about 0.3x10^5 at 40 nM
T3 construct: whole, on cells; On cells CD79b stands in the B-cell receptor complex with CD79a and surface Ig; also called cell surface CD79b; endogenous CD79b
T3 sequence (looked up): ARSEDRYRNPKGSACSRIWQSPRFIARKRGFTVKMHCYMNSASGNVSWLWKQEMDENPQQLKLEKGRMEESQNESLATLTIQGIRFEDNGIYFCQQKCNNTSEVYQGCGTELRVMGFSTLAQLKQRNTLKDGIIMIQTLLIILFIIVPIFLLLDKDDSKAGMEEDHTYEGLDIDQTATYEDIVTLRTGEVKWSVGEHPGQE
Protocol: (§3) The binding affinities of anti-CD79b antibodies to malignant B cell lines were tested. […] The cells were then incubated with 100 μl anti-human IgG1-PE (Invitrogen, cat: 12-4998-82), 1:1000 dilution, for 30 min on ice, washed with 200 ul PBS for three times before flow cytometry analysis.

[5] = target: T3, CD79b endogenously expressed on the …; assay: flow cytometry on Daudi cells; anti-human IgG1-PE; MFI (PE); table under the graph; curve reaches only about 0.2x10^5 at 40 nM
Protocol: as §3

[6] = target: T1, human CD79b recombinant protein; assay: BLI; antibody at 10 ug/ml captured on anti-human IgG Fc probes, hCD79b in solution; same value printed in the rows for 18.3 and 9.14 nM hCD79b
Protocol: as §2

[7] = target: T3, CD79b endogenously expressed on the …; assay: flow cytometry on BJAB cells; anti-human IgG1-PE; MFI (PE); table under the graph; plateau only about 1.1x10^5 against about 6x10^5 for the others
Protocol: as §3

[8] = target: T3, CD79b endogenously expressed on the …; assay: flow cytometry on Nalm-6 cells; anti-human IgG1-PE; MFI (PE); table under the graph; fit of a flat curve, far above the highest concentration of 40 nM
Protocol: as §3

B1: ch29C3 (antibody, human IgG1, kappa, V domains shown)
VH: QSVKESGGGLFKPTDTLTLTCTVSGIDLNNYAMNWVRQAPGKGLDWIGLIGASGSTYYADWAKGRFTISKTSTTVDLKMTSLTTEDTATYFCAIGISATAHTSNIWGPGTLVAVSL
VL: ALVMTQTPSSVSAAVGGTVTINCQASQNIDSNLAWYQQKPGQPPKLLIYDASALASGVPSRFKGSGSGTEYTLTISGVEPDDAATYYCQQDDSSSNVDNPFGGGTEVVVKR
notes: Rabbit/human chimeric IgG1 kappa; also called chimeric 29C3
IC50 [1]: 0.17 nM | Kd [2]: 0.476 nM | binding result [3]: no binding (tested: about 13 nM) | EC50 [4]: 11.3 nM | EC50 [5]: 14.2 nM | koff [6]: 0.000168 s⁻¹ | kon [6]: 353000 M⁻¹ s⁻¹ | EC50 [7]: 0.99 nM | EC50 [8]: 508 nM
